The numbers were not newly measured in PMC8062757, which cites them from elsewhere.

The data set deals with Myostatin (Gallus gallus) (UniProt O42220).
Chain of UniProt O42220 (O42220 267-375): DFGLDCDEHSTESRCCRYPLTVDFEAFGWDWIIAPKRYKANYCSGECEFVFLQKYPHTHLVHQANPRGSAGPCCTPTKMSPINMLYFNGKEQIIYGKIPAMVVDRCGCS

Take Follistatin (from UniProt Q90844): the Kd is 0.584 nM.
